± gives the uncertainty stated by the source.
Assay: self-splicing fitness, log relative to wild type (ln ratio); higher = more splicing; Tetrahymena group I intron in knt gene, E. coli kanamycin selection, DiMSum; sequences stand for … in CUCUCU…GGAGGGAAAAGUUAUCAGGCAUGCACCUGGUAGCUAGUCUUUAAACCAAUAGAUUGCAUCGGUUUAAAAGGCAAGACCGUCAAAUUGCGGGAAAGGGGUCAACAGCCGUUCAGUACCAAGUCUCAGGGGAAACUUUGAGAUGGCCUUGCAAAGGGUAUGGUAAUAAGCUGACGGACAUGGUCCUAACCACGCAGCCAAGUCCUAAGUCAACAGAUCUUCUGUUGAUAUGGAUGCAGUUCACAGACUAAAUGUCGGUCGGGGAAGAUGUAUUCUUCUCAUAAGAUAUAGUCGGACCUCUCCUUAAUGGGAGCUAGCGGAUGAAGUGAUGCAACACUGGAGCCGCUGGGAACUAAUUUGUAUGCGAAAGUAUAUUGAUUAGUUUUGGAGUACUCGUGGUCG
In short: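 Library with all eight P1ex-region intron nucleotides randomised, intron inside the knt kanamycin-resistance gene on pET-22b(+), in E. coli BL21(DE3). Cells grew overnight at 37°C or 30°C on LB agar with or without 25 μg/mL kanamycin (plus 100 μg/mL carbenicillin, 50 μM IPTG, 0.2% rhamnose), in six replicate transformations. Pooled colonies were amplicon-sequenced on Illumina HiSeq 2500. DiMSum fitness is the error-weighted combination of wild-type-normalised replicate fold changes, kanamycin versus none.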

Row | Sequence | self-splicing fitness (ln) (30 °C) | self-splicing fitness (ln) (37 °C)
1 | AGUUAGCAAUAUUACGCGUG | -2.38 ± 0.2 | -0.946 ± 0.17
2 | AGUUAGCAAUAUUACGCUGG | -3.07 ± 0.22 | –
3 | AGUUAGCAAUAUUACGGACC | -0.357 ± 0.11 | -0.279 ± 0.16
4 | AGUUAGCAAUAUUACGGAGU | -3.29 ± 0.3 | -1.3 ± 0.2
5 | AGUUAGCAAUAUUACGGAUC | -1.01 ± 0.13 | -1.09 ± 0.18
6 | AGUUAGCAAUAUUACGGCAC | -1.47 ± 0.16 | -1.82 ± 0.25
7 | AGUUAGCAAUAUUACGGCCA | -0.965 ± 0.16 | 0.403 ± 0.29
8 | AGUUAGCAAUAUUACGGCCU | -0.544 ± 0.11 | 0.22 ± 0.13
9 | AGUUAGCAAUAUUACGGUAU | -2.69 ± 0.13 | -1.34 ± 0.13
10 | AGUUAGCAAUAUUACGGUCC | -0.223 ± 0.14 | -0.259 ± 0.19
11 | AUAAAGCAAUAUUACGAAAA | -1.4 ± 0.091 | -0.609 ± 0.11
12 | AUAAAGCAAUAUUACGAGGG | -3.4 ± 0.15 | -1.64 ± 0.12
13 | AUAAAGCAAUAUUACGAUCG | -0.0352 ± 0.072 | 0.19 ± 0.097
14 | AUAAAGCAAUAUUACGCUAA | -0.787 ± 0.11 | -0.736 ± 0.14
15 | AUAAAGCAAUAUUACGCUAU | -1.28 ± 0.089 | -0.692 ± 0.098
16 | AUAAAGCAAUAUUACGCUCA | 0.119 ± 0.11 | -0.112 ± 0.12
17 | AUAAAGCAAUAUUACGGACU | -0.0332 ± 0.073 | 0.654 ± 0.092
18 | AUAAAGCAAUAUUACGGAGA | -3.18 ± 0.19 | -1.86 ± 0.19
19 | AUAAAGCAAUAUUACGGGUA | -0.752 ± 0.082 | -1.06 ± 0.1
20 | AUAAAGCAAUAUUACGGUCA | 0.0241 ± 0.071 | 0.459 ± 0.1
21 | AUAAAGCAAUAUUACGUAGU | -1.9 ± 0.12 | -0.946 ± 0.17
22 | AUAAAGCAAUAUUACGUAUG | -2.13 ± 0.097 | -1.34 ± 0.12
23 | AUAAAGCAAUAUUACGUCAC | -3.46 ± 0.14 | -3.09 ± 0.2
24 | AUAAAGCAAUAUUACGUCCU | 0.13 ± 0.054 | 0.82 ± 0.079

Row | Sequence | self-splicing fitness (ln) (30 °C) | self-splicing fitness (ln) (37 °C)
25 | AUACAGCAAUAUUACGAGCU | -1.51 ± 0.1 | -1.26 ± 0.11
26 | AUACAGCAAUAUUACGAUCA | -0.716 ± 0.086 | -0.37 ± 0.093
27 | AUACAGCAAUAUUACGAUGG | -3.04 ± 0.18 | -2.35 ± 0.23
28 | AUACAGCAAUAUUACGAUUG | -3.14 ± 0.14 | -2.59 ± 0.2
29 | AUACAGCAAUAUUACGCAAU | -1.93 ± 0.15 | -1.02 ± 0.16
30 | AUACAGCAAUAUUACGCACU | -0.66 ± 0.11 | 0.0538 ± 0.14
31 | AUACAGCAAUAUUACGCAUU | -1.85 ± 0.088 | -1.4 ± 0.11
32 | AUACAGCAAUAUUACGCGAA | -1.42 ± 0.12 | -0.301 ± 0.12
33 | AUACAGCAAUAUUACGCUGA | -2.14 ± 0.099 | -0.86 ± 0.1
34 | AUACAGCAAUAUUACGGCAC | -1.18 ± 0.087 | -0.127 ± 0.12
35 | AUACAGCAAUAUUACGGUGG | -2.95 ± 0.11 | -2.92 ± 0.15
36 | AUACAGCAAUAUUACGUACC | -0.828 ± 0.11 | -0.283 ± 0.15
37 | AUACAGCAAUAUUACGUAGC | -3.19 ± 0.21 | -2.45 ± 0.23
38 | AUACAGCAAUAUUACGUCAC | -3.13 ± 0.16 | -2.1 ± 0.17
39 | AUACAGCAAUAUUACGUCUA | -0.606 ± 0.078 | -0.238 ± 0.079
40 | AUACAGCAAUAUUACGUCUC | -2.98 ± 0.15 | -2.27 ± 0.14
41 | AUACAGCAAUAUUACGUCUU | -0.218 ± 0.059 | 0.336 ± 0.074
42 | AUAGAGCAAUAUUACGACAG | -2.6 ± 0.18 | -0.985 ± 0.2
43 | AUAGAGCAAUAUUACGACAU | 0.275 ± 0.013 | 0.437 ± 0.033
44 | AUAGAGCAAUAUUACGACCU | -1.41 ± 0.23 | -0.988 ± 0.21
45 | AUAGAGCAAUAUUACGACUA | -0.25 ± 0.073 | 0.211 ± 0.088
46 | AUAGAGCAAUAUUACGAGCU | -1.71 ± 0.18 | -1.15 ± 0.16
47 | AUAGAGCAAUAUUACGAGGA | -2.21 ± 0.23 | -2.16 ± 0.27
48 | AUAGAGCAAUAUUACGAUGC | – | -1.36 ± 0.32

Row | Sequence | self-splicing fitness (ln) (30 °C) | self-splicing fitness (ln) (37 °C)
49 | AUAGAGCAAUAUUACGCACC | -1.1 ± 0.35 | -1.41 ± 0.44
50 | AUAGAGCAAUAUUACGCAGG | -3.06 ± 0.2 | -1.86 ± 0.23
51 | AUAGAGCAAUAUUACGCGAU | -2.28 ± 0.35 | -2 ± 0.26
52 | AUAGAGCAAUAUUACGCGGU | -4.29 ± 0.35 | -1.64 ± 0.24
53 | AUAGAGCAAUAUUACGCUGG | -1.97 ± 0.14 | -1.62 ± 0.2
54 | AUAGAGCAAUAUUACGCUGU | -0.963 ± 0.11 | 0.0295 ± 0.14
55 | AUAGAGCAAUAUUACGGAAG | -2.48 ± 0.18 | -1.45 ± 0.21
56 | AUAGAGCAAUAUUACGGAUC | -2.96 ± 0.3 | -2.14 ± 0.31
57 | AUAGAGCAAUAUUACGGCAG | -2.15 ± 0.19 | -1.37 ± 0.16
58 | AUAGAGCAAUAUUACGGCGG | -1.71 ± 0.1 | -1.32 ± 0.13
59 | AUAGAGCAAUAUUACGGGAG | -4.25 ± 0.24 | -2.26 ± 0.22
60 | AUAGAGCAAUAUUACGGGUA | -2.89 ± 0.16 | -2.53 ± 0.24
61 | AUAGAGCAAUAUUACGGGUC | -3.75 ± 0.36 | -2.58 ± 0.24
62 | AUAGAGCAAUAUUACGGGUU | -2.43 ± 0.16 | -1.1 ± 0.17
63 | AUAGAGCAAUAUUACGGUGA | -1.49 ± 0.15 | -1.41 ± 0.19
64 | AUAGAGCAAUAUUACGUAGC | -3.16 ± 0.29 | -2.27 ± 0.3
65 | AUAGAGCAAUAUUACGUGAA | – | -1.07 ± 0.25
66 | AUAGAGCAAUAUUACGUGAC | -1.62 ± 0.23 | -1.6 ± 0.28
67 | AUAGAGCAAUAUUACGUGAG | -3.77 ± 0.21 | -2.42 ± 0.14
68 | AUAGAGCAAUAUUACGUGCA | -0.67 ± 0.069 | -0.162 ± 0.1
69 | AUAGAGCAAUAUUACGUGCC | -3.44 ± 0.41 | -1.69 ± 0.4
70 | AUAUAGCAAUAUUACGAAGG | -2.83 ± 0.3 | -2.3 ± 0.4
71 | AUAUAGCAAUAUUACGACAG | -2.12 ± 0.19 | -1.51 ± 0.27
72 | AUAUAGCAAUAUUACGAUAA | -1.38 ± 0.31 | -0.229 ± 0.39

Row | Sequence | self-splicing fitness (ln) (30 °C) | self-splicing fitness (ln) (37 °C)
73 | AUAUAGCAAUAUUACGCAUA | -2.02 ± 0.26 | -0.946 ± 0.26
74 | AUAUAGCAAUAUUACGCCAA | -1.24 ± 0.45 | -0.89 ± 0.42
75 | AUAUAGCAAUAUUACGCGUG | -1.1 ± 0.12 | -0.528 ± 0.14
76 | AUAUAGCAAUAUUACGGACG | -2.09 ± 0.16 | -1.07 ± 0.19
77 | AUAUAGCAAUAUUACGGGGG | -2.92 ± 0.36 | -0.973 ± 0.28
78 | AUAUAGCAAUAUUACGGUUC | -3.14 ± 0.17 | -2.5 ± 0.24
79 | AUAUAGCAAUAUUACGUACG | -2.49 ± 0.2 | -0.317 ± 0.15
80 | AUAUAGCAAUAUUACGUCGA | -2.07 ± 0.17 | -1.51 ± 0.2
81 | AUAUAGCAAUAUUACGUGAG | -1.81 ± 0.063 | -0.565 ± 0.096
82 | AUAUAGCAAUAUUACGUUCG | -1.57 ± 0.2 | -0.377 ± 0.27
83 | AUAUAGCAAUAUUACGUUUU | -2.98 ± 0.22 | -1.82 ± 0.22
84 | AUCAAGCAAUAUUACGAAAG | -3.67 ± 0.21 | -2.74 ± 0.25
85 | AUCAAGCAAUAUUACGAACU | -0.00363 ± 0.11 | 0.0259 ± 0.11
86 | AUCAAGCAAUAUUACGACGA | -1.26 ± 0.095 | -0.128 ± 0.11
87 | AUCAAGCAAUAUUACGAGCU | -1.24 ± 0.084 | -0.596 ± 0.1
88 | AUCAAGCAAUAUUACGAUGG | -3.43 ± 0.26 | -2.67 ± 0.2
89 | AUCAAGCAAUAUUACGCAUU | -2.32 ± 0.12 | -1.69 ± 0.14
90 | AUCAAGCAAUAUUACGCUGC | -2.4 ± 0.41 | -0.934 ± 0.33
91 | AUCAAGCAAUAUUACGGAAU | -1.94 ± 0.071 | -1.03 ± 0.083
92 | AUCAAGCAAUAUUACGGAGG | -2.43 ± 0.096 | -1.36 ± 0.13
93 | AUCAAGCAAUAUUACGGAUG | -2.01 ± 0.079 | -0.664 ± 0.082
94 | AUCAAGCAAUAUUACGGCGA | -0.555 ± 0.077 | 0.246 ± 0.1
95 | AUCAAGCAAUAUUACGGCGG | -1.04 ± 0.066 | -0.788 ± 0.091
96 | AUCAAGCAAUAUUACGGGUG | -1.4 ± 0.088 | -0.416 ± 0.087
